Test results as given in PMC2861366.

Legend:
Assay in all cases: ITC
[1] = biological target: P9, SSB C-terminal 9-mer peptide (UniProt P0AGE0)
[2] = biological target: SSB (single-stranded DNA binding protein), full length (UniProt P0AGE0); details: pH 7.0, 25 °C, 0.2 M NaCl, buffer C: 10 mM cacodylate
[3] = biological target: P15, SSB C-terminal 15-mer peptide (UniProt P0AGE0)
[4] = biological target: SSB tetramer-(dT)70 1:1 complex (fully wrapped (SSB)65-like) (UniProt P0AGE0)
[5] = biological target: SSB tetramer-(dT)70 1:1 complex (fully wrapped (SSB)65-like) (UniProt P0AGE0); details: pH 8.1, 25 °C, 20 mM NaCl, buffer H: 10 mM Hepes
[6] = pH 7.0, 25 °C, 20 mM NaCl, buffer C: 10 mM cacodylate, pH 7.0
[7] = pH 7.5, 25 °C, 20 mM NaCl, buffer T: 10 mM Tris
[8] = pH 7.5, 25 °C, 20 mM NaCl, buffer T: 10 mM Tris, pH 7.5
[9] = pH 7.0, 25 °C, 0.2 M NaCl, buffer C: 10 mM cacodylate
[10] = pH 7.0, 25 °C, 200 mM NaCl, buffer C: 10 mM cacodylate, pH 7.0
[11] = pH 7.5, 25 °C, 0.2 M NaCl, buffer T: 10 mM Tris

Chain of SSB tetramer-(dT)70 1:1 complex (fully wrapped (SSB)65-like) (P0AGE0 whole entry, one chain of several): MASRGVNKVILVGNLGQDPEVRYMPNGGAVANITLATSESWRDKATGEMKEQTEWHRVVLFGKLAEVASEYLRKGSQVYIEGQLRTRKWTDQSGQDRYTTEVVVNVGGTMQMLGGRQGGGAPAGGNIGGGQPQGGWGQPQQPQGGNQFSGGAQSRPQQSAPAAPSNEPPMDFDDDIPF
Chain of P9, SSB C-terminal 9-mer peptide (P0AGE0 whole entry, looked up, tested part not stated): as the sequence (P0AGE0 whole entry, one chain of several) above
Chain of SSB (single-stranded DNA binding protein), full length (P0AGE0 whole entry): as the sequence (P0AGE0 whole entry, one chain of several) above

χ (chi) subunit of DNA polymerase III holoenzyme (HolC)
K (observed association constant) [1, 6]: 1.6e+06 M⁻¹ | ΔH (observed) [1, 6]: -7.9 kcal/mol | ΔH (observed) [1, 7]: -8.2 kcal/mol | K (observed association constant) [1, 8]: 800000 M⁻¹ | Kobs [2]: (3.0±0.7)×10^5 M^−1 | K (observed association constant) [3, 6]: 1.5e+06 M⁻¹ | ΔH (observed) [3, 6]: -9.5 kcal/mol | ΔH (observed) [3, 7]: -7.7 kcal/mol | K (observed association constant) [3, 8]: 800000 M⁻¹ | Kobs [4, 9]: (5.4±1.0)×10^5 M^−1 | Kobs [4, 6]: (7.6±1.6)×10^6 M^−1 | ΔHobs [4, 6]: -8.7 kcal/mol | Kobs ([4]; pH 8.1, 25 °C, 20 mM NaCl, buffer H: 10 mM Hepes): (5.5±0.8)×10^6 M^−1 | ΔHobs ([4]; pH 8.1, 25 °C, 20 mM NaCl, buffer H: 10 mM Hepes, pH 8.1): -8.9 kcal/mol | Kobs [5]: (3.8±0.4)×10^6 M^−1

PriA helicase (primosomal protein N')
K (observed association constant) [1, 10]: 180000 M⁻¹ | K (observed association constant) [1, 8]: 2e+06 M⁻¹ | ΔH (observed) [1, 8]: -6.7 kcal/mol | protons absorbed on complex formation ([3]; pH 7.0-7.5, 25 °C, 20 mM NaCl, buffer T: 10 mM Tris, pH 7.5): 1 protons | K (observed association constant) [3, 6]: 2.7e+06 M⁻¹ | ΔH (observed) [3, 6]: -20.7 kcal/mol | K (observed association constant) [3, 10]: 360000 M⁻¹ | K (observed association constant) [3, 8]: 1.6e+06 M⁻¹ | ΔH (observed) [3, 8]: -7 kcal/mol | Kobs [4, 9]: (3.7±0.5)×10^6 M^−1 | ΔHobs [4, 9]: -18.3 kcal/mol | Kobs [4, 11]: (1.9±0.5)×10^6 M^−1 | ΔHobs [4, 11]: -8.6 kcal/mol
